{"source": "patent US8575097B2", "about": "“Exendin variant and conjugate thereof” (Pegbio Co., Ltd., priority 2009, dated 2013)", "system": "guinea pigs", "test": "Systematically allergic reaction in guinea pigs (Example 23)", "type": "in vivo, guinea pig", "conditions": "albumin 240 mg/kg via toe vein", "text": "44 male healthy guinea pigs were provided, and the body weight of each guinea pig was about 300 g."}
{"molecule": "chicken ovalbumin (protein, UniProt P01012 2-386, looked up, chicken ovalbumin, albumin group in the guinea pig allergy test) Ovalbumin: GSIGAASMEFCFDVFKELKVHHANENIFYCPIAIMSALAMVYLGAKDSTRTQINKVVRFDKLPGFGDSIEAQCGTSVNVHSSLRDILNQITKPNDVYSFSLASRLYAEERYPILPEYLQCVKELYRGGLEPINFQTAADQARELINSWVESQTNGIIRNVLQPSSVDSQTAMVLVNAIVFKGLWEKAFKDEDTQAMPFRVTEQESKPVQMMYQIGLFRVASMASEKMKILELPFASGTMSMLVLLPDEVSGLEQLESIINFEKLTEWTSSNVMEERKIKVYLPRMKMEEKYNLTSVLMAMGITDVFSSSANLSGISSAESLKISQAVHAAHAEINEAGREVVGSAEAGVDAASVSEEFRADHPFLFCIKHIATNAVLFFGRCVSP", "values": [{"measurement": "time to death after stimulation", "value": "< 2", "unit": "min"}]}
